Experimental data taken from article PMC9942873 (Immunity, 2023).

Experiments:
Assay in all cases: ELISA
Settings in all cases: both partners purified
[1] = target: T1, recombinant full-length Pfs48/45 (Plasmodium falciparum 3D7, UniProt Q8I6T1)
Pfs48/45 D1-2 [2] = target: T2, Pfs48/45 D1-2 (Plasmodium falciparum 3D7, UniProt Q8I6T1)
Pfs48/45 D2-3 = Pfs48/45 D2-3 (Plasmodium falciparum 3D7, UniProt Q8I6T1)
[3] = target: T1, recombinant full-length Pfs48/45; remark: listed apart in the source
Pfs48/45 D1-2 [4] = target: T2, Pfs48/45 D1-2; remark: listed apart in the source

T1 sequence (Q8I6T1 28-428): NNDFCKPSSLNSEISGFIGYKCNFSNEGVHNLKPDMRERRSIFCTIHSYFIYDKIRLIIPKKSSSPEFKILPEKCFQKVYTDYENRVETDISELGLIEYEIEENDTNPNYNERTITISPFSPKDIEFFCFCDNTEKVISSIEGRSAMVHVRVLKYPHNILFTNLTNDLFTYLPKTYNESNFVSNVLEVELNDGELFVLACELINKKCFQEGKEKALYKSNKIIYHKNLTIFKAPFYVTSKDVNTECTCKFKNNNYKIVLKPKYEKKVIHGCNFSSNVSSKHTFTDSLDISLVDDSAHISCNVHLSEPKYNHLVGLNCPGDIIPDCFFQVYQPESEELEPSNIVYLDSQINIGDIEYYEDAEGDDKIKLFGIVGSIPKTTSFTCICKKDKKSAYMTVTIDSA
Chain of Pfs48/45 D2-3 (Q8I6T1 184-428): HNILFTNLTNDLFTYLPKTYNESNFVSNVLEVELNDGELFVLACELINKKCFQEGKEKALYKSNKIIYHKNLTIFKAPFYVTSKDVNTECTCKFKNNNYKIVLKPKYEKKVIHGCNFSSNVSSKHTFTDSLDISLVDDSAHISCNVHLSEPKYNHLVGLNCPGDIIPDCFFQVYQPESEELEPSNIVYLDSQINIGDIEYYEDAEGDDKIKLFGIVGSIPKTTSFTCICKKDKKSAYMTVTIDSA
T2 sequence (Q8I6T1 28-289): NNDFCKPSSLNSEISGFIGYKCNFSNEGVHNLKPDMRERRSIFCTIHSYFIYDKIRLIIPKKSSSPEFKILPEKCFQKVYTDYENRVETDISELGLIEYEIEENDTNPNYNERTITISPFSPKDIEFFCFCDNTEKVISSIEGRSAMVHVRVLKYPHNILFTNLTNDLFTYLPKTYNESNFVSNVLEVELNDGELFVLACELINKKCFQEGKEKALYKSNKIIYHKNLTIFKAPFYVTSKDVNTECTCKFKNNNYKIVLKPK

| Binder | binding result [1] | binding result (Pfs48/45 D1-2 [2]) | binding result (Pfs48/45 D2-3) | binding result [3] | binding result (Pfs48/45 D1-2 [4]) |
| --- | --- | --- | --- | --- | --- |
| RUPA-104 (antibody, V domains shown, human IgG1; source: recombinant human IgG1, 293T (Protein A purified) or GenScript) VH: QVQLVQSGAEVKKPGASVKISCKTSGYTFTNYDINWVRQATGRGLEWMGWINPNTGKTGFAQKFQGRVTMTRSTSISTAYMELSSLRSEDTAVYYCARGVTTPDYFDSWGQGTLVTVSS VL: DIQMTQSPSSVSASVGDRVSITCRASQDISGWLAWYQQKPGKAPKLLIYAASTLRTGVPSRFSGSGSGTDFTLTISSLQPEDFATYYCLQANSLPVTFGQGTRLEIT | binds | binds | binds |  |  |
| RUPA-90 (antibody, V domains shown, human IgG1; source: recombinant human IgG1, 293T (Protein A purified) or GenScript) VH: EVQLVESGGGLVQPGGSLRLSCAASGFMFSSYWMTWVRQAPGKGLEWVANIKEDGSEKYYVDSVKGRFTISRDNAENSLYLHMNSLRAADTAVYYCAREGDVFVAPSAVRKGGVYGMDVWGQGTTVTVSS VL: not shown | binds | binds | binds |  |  |
| RUPA-30 (antibody, V domains shown, human IgG1; source: recombinant human IgG1, 293T (Protein A purified) or GenScript) VH: QVQLVQSGAEVKKPGASVKVSCKASGYTFTTYFLHWVRQAPGQGLEWMGVIHPSGGSTTYAENFEGRVTMSRDTSTSTVYMELSSVRYEDTAVYYCARAGEYCRGIRCYIDGLDIWGQGTTVTVSS VL: DIQMTQSPSSLSASVGDRVTITCRASQGIRNDLGWYQQKPGKAPKRLIYAASSLQSGVPSRFSGSGSGTEFTLTISSLQPEDFATYYCLQHNDSPWTFGQGTKVEIK |  |  |  | binds | binds |
| RUPA-37 (antibody, V domains shown, human IgG1; source: recombinant human IgG1, 293T (Protein A purified) or GenScript) VH: QEQLVQSGAELRTPGATVKVSCKAPAYTFTTYFMHWVRQAPGRGFEWLGRINPSRGSTTYADKFQGRVTMTSDTSTTTVFMEVTNLRSEDTAVYYCARAGEYCRGIRCYVDGIDMWGQGTMITVSS VL: DIQMTQSPSSLSASIGDRVTITCRASQGIRNDLGWYQQKPGKAPQRLIYAASSLQSGVPSRFSGSGSGTEFTLTISSLQPEDFASYFCLQHNSSPWTFGQGTKVEIK |  |  |  | binds | binds |
| RUPA-66 (antibody, V domains shown, human IgG1; source: recombinant human IgG1, 293T (Protein A purified) or GenScript) VH: QVQVQQWGAGLLKPSETLSLTCAAFGGSFSDYYWSWIRQPPGKGLEWIGEINHSGTTNYNPSLKSRVIISVDTSKNQFSLKLSSVTAADTALYYCARRSSGWYRRSRYTGWFDPWGQGTLVTVSS VL: EILMTQSPATLSVSPGERATLSCRASQTITSNLAWYQQKPGQAPRLLMYGASTRATGIPARFSGSGSGTEFTLTISSLQSEDFGIYYCQQYNNWPGLSFGGGTKVEIK |  |  |  | binds | binds |
| RUPA-36 (antibody, V domains shown, human IgG1; source: recombinant human IgG1, 293T (Protein A purified) or GenScript) VH: QVQLQQWGAGLLKPSETLSLTCAVEGDSLGDYYWSWIRQPPGKGLEWIGDINHSGTTNYIPSLKSRVTISVDPSRKHFSLKLNFVTAADTATYFCARRASGWYRQSRYTGWFDPWGQGTLVTVSS VL: EIVMTQSPATLSVSPGERATLSCRASHSINSNVAWYQQKPGQAPRLLIYGASTRATGIPARFSGSGSGTEFTLTISSLQTEDFAVYYCQQYNNWPGLSFGGGTKVEIK |  |  |  | binds | binds |
| RUPA-26 (antibody, V domains shown, human IgG1; source: recombinant human IgG1, 293T (Protein A purified) or GenScript) VH: QVQLQQWGAGLLKPSETLSLTCLVNGGSFSDYYWSWIRQPPGRGLEWIGDVNHSGTTNHRPSLQSRVTLSLDMSKNQFSLKLTSVTAADTAVYFCARRSSGYYRGSRYTGWFDPWGQGTLVTVSS VL: EIVLTQSPATLSVSPGERATLSCRASQTITRNLAWYQQKPGQAPRLLIYGASTRAPDIPARFSGSGSGTEFTLTISSLQSEDFALYYCQQYNNWPGLTFGGGTKVEIK |  |  |  | binds | binds |
| RUPA-75 (antibody, V domains shown, human IgG1; source: recombinant human IgG1, 293T (Protein A purified) or GenScript) VH: QVQLQQWGAGLLKPSETLSLTCGVNGGSFTDYYWTWIRQPPGKGLEWIGDINHSGITNYNPSLKSRLTLSVDTSKSHFSLRLNSVTAADTALYFCARRSSGYYRGSRYTGWLDPWGQGTLVTVSS VL: EIVMTQSPATLSVSPGERATLSCWASQSITSNLAWYQQKPGQAPRLLIYGASTRATGIPARFSGSGSGTGFTLTISTVQSEDFAVYYCQQYNNWPGLTFGGGTKVEIK |  |  |  | binds | binds |
| RUPA-45 (antibody, V domains shown, human IgG1; source: recombinant human IgG1, 293T (Protein A purified) or GenScript) VH: QVQLQQWGAGLLKPSETLSLTCLVNGGSFSDYYWSWIRQPPGRGLEWIGDVNHSGTTNHRPSLQSRVTLSLDMSKNQFSLRLTSVTAADTAVYFCARRSSGYYRGSHYTGWFDPWGQGTLVTVSS VL: EIVLTQSPATLSVSPGERATLSCRASQTITRNLAWYQQKPGQAPRLLIYGASTRAPDIPARFSGSGSGTEFTLTISSLQSEDFALYYCQQYNNWPGLTFGGGTKVEIK |  |  |  | binds | binds |
| RUPA-71 (antibody, V domains shown, human IgG1; source: recombinant human IgG1, 293T (Protein A purified) or GenScript) VH: EEQLVESGGGLVKPGRSLRLSCSASGFTLGDYAVTWFRQASGKEPEWVGVIRTKDEGGTTEYAASVKGRFSILRDDSKSIAHLQMNSLKIEDTAVYYCTRNGLRWYDSSGPRGWAFDIWGPGTLVVVSS VL: EIVMTQSPATVSVSPGERATLSCRTSQSVSNKLAWYQQKPGQAPRLLIYGASTRATGIPARFSGSGSGTQFTLTISSLQSEDFAVYYCQQYNNWPPWTFGRGTKVEIK |  |  |  | binds | binds |
| RUPA-58 (antibody, V domains shown, human IgG1; source: recombinant human IgG1, 293T (Protein A purified) or GenScript) VH: QVQLVQSGPEAKKPGASVKVSCQASGYPFSGYYMHWLRQAPGQGLEWMGWMNPNSGGTKYAQRFQGRVTMTRDTSISTAHMELRGLRSDDTAVYYCARDYCTGSSCYRTDYDYWGQGTLVTVSS VL: DIQMTQSPSSLSASVGDRVTITCRASQIISTYLNWYQHKPGKAPKLLIKSASTLQSGVPSRFSGSGSGTDFTLTITSLQPEDFATFYCQQSYRDPITFGQGTRLEIK |  |  |  | binds | binds |
| RUPA-88 (antibody, V domains shown, human IgG1; source: recombinant human IgG1, 293T (Protein A purified) or GenScript) VH: QVHLVQSGAEVKKPGASVKVSCKASGYNFLYHDITWVRQATGQGLEWLGWMNPNTGDTGYAQNFQGRVTMTRDMSRSTAYLELGSLRSEDTAVYYCARGVGSYHGSGGWLDPWGPGTLVIVSS VL: QSVLTQPPSVSETPGQRVTISCSGSSSNIGLNTVNWYQQLPGTAPKLLIHNDNQRPSGVPDRFSGSKSGTSASLAISGLHSEDEADYYCATWDDSLKRRVFGGGTKLTVL | binds | binds | binds |  |  |
| RUPA-99 (antibody, V domains shown, human IgG1; source: recombinant human IgG1, 293T (Protein A purified) or GenScript) VH: QVHLVQSGAEVKKPGASVKVSCKASGYNFLYHDITWVRQATGQGLEWLGWMNPNTGDTGYAQNFQGRVTMTRDMSRSTAYMELDSLRSEDTAVYYCARGVGSYHGSGGWLDPWGPGTLVIVSS VL: QSVLTQPPSVSETPGQRVTISCSGSSSNIGLNTVNWYQQLPGTAPNLLIHNDNQRPSGVPDRFSGSKSGTSASLAISGLHSEDEADYYCATWDDSLKRRVFGGGTKLTVL | binds | binds | binds |  |  |
| RUPA-87 (antibody, V domains shown, human IgG1; source: recombinant human IgG1, 293T (Protein A purified) or GenScript) VH: QVQVVQSGAEVRKPGASVKVSCKTSGYTFIYYYIHWVRQAPGQGLEWLGWINPNSGGTKYAQQFQGRVTVTRDTSVSTAYMELNGLTSDDTAVYYCARVVAAEGYFDYWGQGTLLTVSS VL: DIQMTQSPSSVSASVGDRVTITCRASQGISGWLAWYQQKPGKAPKLLIYAASTLQSGVPSRFSGSGSGTDFTLTISSLQPDDFATYFCQQANSFPLTFGGGTKISLK | binds | binds | binds |  |  |
| RUPA-77 (antibody, V domains shown, human IgG1; source: recombinant human IgG1, 293T (Protein A purified) or GenScript) VH: QITLKESGPTLVKPTQTLTLTCSFSGFSLTTAGVAVAWIRQPPGQALEWLGIIYWNDDKRYNPSFQNRLTIAKDTSKNQVVLTMTNMDPVDTGTYYCAHRILAAYNYFDPWGQGTLVTVSS VL: DIQMTQSPPSLSASVGDRVTITCRASQPINNFLNWYQQRPGKAPKLLIYAASRLQSGVPSRFSGSVSGTDFTLTISSLQQEDFAIYYCQQSYTSPLTFGGGTKVEIK |  |  |  | binds | binds |
| RUPA-92 (antibody, V domains shown, human IgG1; source: recombinant human IgG1, 293T (Protein A purified) or GenScript) VH: QVQLVQSGAEVKKPGASVKVSCKASGYTFTSHDIIWVRQATGQGLEWMGWMNPNTGDKGYAQKFQGRVTMTRSMSISTAYMELRSLRSEDTAVYYCARGVGTYRGSGGWFDPWGPGTLITVSS VL: QSALTQPRSVSGSPGQSVTISCTGTSGDVGGFNYVSWYQQHPGKTPRLMLYHVTKRPSGVPDRFSGSKSGNTASLTISGLQADDEADYYCCSYAGNYIEIFGGGTKLTVL | binds | binds | binds |  |  |
| RUPA-46 (antibody, V domains shown, human IgG1; source: recombinant human IgG1, 293T (Protein A purified) or GenScript) VH: QVQLVQSGGGLVKPGGSLKLSCAASGFAFSDYYMHWIRQSPGKGLEWISYVSNSGNTIYYADSVKGRFTISRDNTKNSLFLQMNSLSADDTAVYYCARDRKGRNSETYYGALDVWGQGTTVTVST VL: DIVMTQSLDSLAVSLGERATINCKSSQSVFSTYNNKNYLAWYQQKLGQPPKLLIYWASTRESGVPDRFSGSGSGTDFTLTISSLQAEDVAVYYCQQYYTTPTWTFGQGTKVEIK |  |  |  | binds | binds |
| RUPA-91 (antibody, V domains shown, human IgG1; source: recombinant human IgG1, 293T (Protein A purified) or GenScript) VH: QVQLVQSGAEVKKIGASVKVSCKASGYTFTSHDIIWVRQAAGQGLEWMGWMNPNTGKKGYVEKFQGRVTLTRNMSTGTAYMELSSLRSDDTAVYYCARGVGTYHGSEGWLDPWGQGTLITVSS VL: QSVLTQPPSASETPGQRVTISCSGSSSNVGSNSVNWYQQVPGTAPKLLIYNTNQRPSGVPARFSGSKSGTSASLAISGLHSEDEADYYCATWDGSLKKGVFGGGTKVTVL | binds | binds | binds |  |  |
| RUPA-78 (antibody, V domains shown, human IgG1; source: recombinant human IgG1, 293T (Protein A purified) or GenScript) VH: EGQLLESGGDLVQPGGSLRLSCAASRFTFNTFAMTWVRQAPGKGLEWVSTISRSGSSTFYADSVKGRFTISRDNSKDTLYLQMNSLRAEDTALYSCAKFRTPRFSSSSGDALDLWGQGTMVTVSS VL: EIVLTQSPGTLSLSPGERATLSCRASQSVSSSYFAWYQRRPGQAPRLVIDGASSRATGIPDRFSGSGSGTDFTLTISRLEPEDFAVYYCQQYGVSPGTFGQGTKLEIK |  |  |  | binds | binds |
